{"source": "the nanobody polyreactivity screen of Harvey et al. (2022)", "data": [{"assay": "yeast display, Sf9 membrane polyspecificity reagent, FACS + sequencing; frameworks hold sequencing errors", "summary_of_the_method": "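After 36–48 hours of galactose induction, yeast (Saccharomyces cerevisiae BJ5465) displaying a synthetic nanobody library were stained at 4 °C for 1 hour with 10% biotinylated, detergent-solubilized Sf9 membrane reagent. Streptavidin microbeads enriched the stained cells before FACS sorting into low and high (top ~1%) gates on anti-HA and streptavidin fluorescence. Each clone's polyreactivity label reflects its gate of origin.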", "values": [{"sequence": "QVQLVESGGGLVQAGGSLRLICAASGNTFNFYAMGSYRQAPGKERELVAGISGSNTYYADSVKGRFTISRDNAKNTVYLQMNSLKPEDTAVYYCAKRAIWRYGYWGQGTQVTVSS", "polyreactivity (PSR sort gate)": "high polyreactivity"}, {"sequence": "QVQLVESGGGLVQAGGSLRLICAASGNTFVDYAMGWYRQAPGKELELVAAISRSGGSTYADSVKGRFTISRDNAKNTVYLQMNSLKPEDTAVYYCAAYSGVGYLWFDYWGQGTQVTVSS", "polyreactivity (PSR sort gate)": "low polyreactivity"}, {"sequence": "QVQLVESGGGLVQAGGSLRLICAASGRIFGDNGMGWYTQAPGKERELVTYADSVKGRFTISRDNAKNTVYLQMNSLKPEDTAVYYCNKVPPRFSGLDENYWGQGTQVTVSS", "polyreactivity (PSR sort gate)": "low polyreactivity"}, {"sequence": "QVQLVESGGGLVQAGGSLRLICAASGRIFKLYAMGWYRQAPGKERELVASINSGGGSTNYADSVKGRFTISRDNAKNTVYLQMNSLKPEDPAVYYCAKCYRRVYGPFFYWGQGTQVTVSS", "polyreactivity (PSR sort gate)": "low polyreactivity"}, {"sequence": "QVQLVESGGGLVQAGGSLRLICAASGRIFRYNAMGWYRQAPGKERELVAAISSVGSTNYADSVKGRFTISRDNAKNTVYLQMNSLKPEDTAVYYCNAVVRSYVKTYRYYKVDYWGQGTQVTVSS", "polyreactivity (PSR sort gate)": "high polyreactivity"}, {"sequence": "QVQLVESGGGLVQAGGSLRLICAASGRIFSLYAMGWYRQAPGKERELVAAITWSSGSTYYADSVKGRFTISRDNAKNTVYLQMNSLKPEDTAVYYCNAVWRTRDYDYWGQGTQVTVSS", "polyreactivity (PSR sort gate)": "low polyreactivity"}, {"sequence": "QVQLVESGGGLVQAGGSLRLICAASGRIFYDNALGWYRQAPGKERELVAAISESGTSTYYADSVKGRFTISRDNAKNTVYLQMNSLKPEDTAVYYCAAYFTWNRKVFYYWGQGTQVTVSS", "polyreactivity (PSR sort gate)": "high polyreactivity"}, {"sequence": "QVQLVESGGGLVQAGGSLRLICAASGRIWVNAMGWYIQAPGKQREFVAAISTSSASTYYADSVKGRFTISRDNAKNTVYLQMNSLKPEDTAVYYCAARYLGKKYYYWGQGTQVTVSS", "polyreactivity (PSR sort gate)": "high polyreactivity"}, {"sequence": "QVQLVESGGGLVQAGGSLRLICAASGRPFTYNMGWYRQAPGKERELVAANDLRRLCEGALHNFTRQCEEYRLFTDVQPETGRYPVYYCNADPAWIWYTFDYWGQGTQVTVSS", "polyreactivity (PSR sort gate)": "low polyreactivity"}, {"sequence": "QVQLVESGGGLVQAGGSLRLICAASGRTCRTYTMGLYRQATGKEREFVAAITSSGASTYYADSVKGRFTISRDKAKNTVYLQMNSLKPEDTAVYYCAARPRPRSANGMYYWGQVTQVTVSS", "polyreactivity (PSR sort gate)": "high polyreactivity"}, {"sequence": "QVQLVESGGGLVQAGGSLRLICAASGRTFAYYAMGWYRQAPGKERELVAAISSAGRTYYADSVKGRFTISRDNAKNTVYLHMNSLKPEDTSDYYCAVRWLTQFNGRYGSWGQGTQVTVSS", "polyreactivity (PSR sort gate)": "high polyreactivity"}, {"sequence": "QVQLVESGGGLVQAGGSLRLICAASGRTFGYYTMGWYRPAPGKERELVARINYIGSSTYYADSVKGRFTISRDNAKNTVYLQMNSLKPEDTAVYYCNADNARGRSGVRRYYWGQGTQVTVSS", "polyreactivity (PSR sort gate)": "high polyreactivity"}, {"sequence": "QVQLVESGGGLVQAGGSLRLICAASGRTFPYNAMGWYRQAPGKERELVAAISSGTRTDYADSVKGRFTISRDNAKNTVYLQMNSLKPEDTAVYYCAADYYHYLWRAYGFDYWGQGTQVTVSS", "polyreactivity (PSR sort gate)": "high polyreactivity"}, {"sequence": "QVQLVESGGGLVQAGGSLRLICAASGRTFRYYAMGWYRQAPGKERELVAAISASGGSTFYADSVKGRFTISRDNAKNTVYLQMNSLKPEDTAVYYCAAYHYSVFPYKQYDYWGQGTQVTVSS", "polyreactivity (PSR sort gate)": "high polyreactivity"}, {"sequence": "QVQLVESGGGLVQAGGSLRLICAASGRTFRYYAMGWYRQAPGKERELVASISDGGSTNYADSVKGRFTISRDNAKNTVYLQMNSLKPEDTAVYYCNAKAYVWYLYDEFGYWGQGTQVTVSS", "polyreactivity (PSR sort gate)": "low polyreactivity"}, {"sequence": "QVQLVESGGGLVQAGGSLRLICAASGRTFRYYTMGWYRQAPGKERELVAAISWRGGSTYYADSVKGRFTISRDNAKNTVYLQMNSLKPEDTAVYYCAAKRPKRYNEGYYWGQGTQVTVSS", "polyreactivity (PSR sort gate)": "high polyreactivity"}, {"sequence": "QVQLVESGGGLVQAGGSLRLICAASGRTFTHNAMGWSRQAPGKERELVAGITSGCSTNYADSVKGRFTISRDNAKNTVYLQMNSLKPEDTAVYYCNKVFFWSRYKGYYYWGQGTQVTVSS", "polyreactivity (PSR sort gate)": "high polyreactivity"}, {"sequence": "QVQLVESGGGLVQAGGSLRLICAASGRTFTYYDMGWYRQAPGKERELVAGITARGGSTYADSVKGRFTISRDNAKNTVYLQMNSLKPEDTAVYYCAADLYTSLDSTYDYWGQGTQVTVSS", "polyreactivity (PSR sort gate)": "low polyreactivity"}, {"sequence": "QVQLVESGGGLVQAGGSLRLICAASGRTFVKNAMGWSRQAPGKERELVAAIDRGSRTNYADSVKGRFTISRDNAKNTVYLQMNSLKPEDTAVYYCATRYRVRDDQTGTWSIFGYWGQGTQVTVSS", "polyreactivity (PSR sort gate)": "high polyreactivity"}, {"sequence": "QVQLVESGGGLVQAGGSLRLICAASGRTFYRNDMGWSRQAPGKERELVAAISGSGGTTYYADSVKGRFTISRYNAKNTVYLQMNSLNPEDTAVDYCAVDGNFFGEVRPYDYWGQGTQVTVSS", "polyreactivity (PSR sort gate)": "low polyreactivity"}, {"sequence": "QVQLVESGGGLVQAGGSLRLICAASGRTFYYYGMGWYRQAPGKERELVASITNGGNTNYADSVKGRFTISRDNAKNPVYLQKHSLYPEDTAVYYCAKDVPYWRPVVRYDYWGQGTQVTVSS", "polyreactivity (PSR sort gate)": "low polyreactivity"}, {"sequence": "QVQLVESGGGLVQAGGSLRLICAASGRTLWWYAMGWYRQAPGKESELVAAIDYSDGNTYYADSVKGRFTISRDYAKNTVYLQMNSLKPEDTAVYFCAAEGYYNYGSYYWGQGTQVTVSS", "polyreactivity (PSR sort gate)": "high polyreactivity"}, {"sequence": "QVQLVESGGGLVQAGGSLRLICAASGRTLYLYAMGWSRQAPGKEPELVAAIDWRGTSTYYADSVKGRFTISRDNAKNTVYLQMNSLKPEDTAFYYCNARFRSYLRWYQRDYWGQGTQVTVSS", "polyreactivity (PSR sort gate)": "low polyreactivity"}, {"sequence": "QVQLVESGGGLVQAGGSLRLICAASGRTYHYYTLGWYRQSPGKERELVARISLGVGSTYYADSVKGRFTISRDNAKNTVDLQMYTLIPEDTAVYYCNAVWYKSFVKGVYGRVDWGQGTQVTVSS", "polyreactivity (PSR sort gate)": "low polyreactivity"}, {"sequence": "QVQLVESGGGLVQAGGSLRLICAASGSIFPFYAMGWYRQEPGKERELVAAITYSGGRTYYADSVKGRFTISRDNAKNTVYLQMNSLKPEDTAVYYCAVVVIFVRYGYWGQGTQVTVSS", "polyreactivity (PSR sort gate)": "low polyreactivity"}, {"sequence": "QVQLVESGGGLVQAGGSLRLICAASGSIFRLYAMGWYRPAPGKEREFVARIRWRGGSTNYADSVKGRFTISRDNAKNTVYLQMNCLKPVDTAVYYCAAKQGTVRAHTYVAWYDYWGQGTQVTVSS", "polyreactivity (PSR sort gate)": "high polyreactivity"}, {"sequence": "QVQLVESGGGLVQAGGSLRLICAASGSIFRLYAMGWYRQAPGKERELVAAIRWSGGRTYYADSVKGRFTISRDNAKNTVYLQMNSLKPEDTAVYYCAADYYLPAYPPQTFGYWGQGTQVTVSS", "polyreactivity (PSR sort gate)": "high polyreactivity"}, {"sequence": "QVQLVESGGGLVQAGGSLRLICAASGSIFRSYAMGWYRPAPGKERELVAAISSGGRTKYADSVKGRLTISRDNAKNTVYLQMNSLKPEDSAVYYCAARSVSATADFHYWGQGTQVTVSS", "polyreactivity (PSR sort gate)": "high polyreactivity"}, {"sequence": "QVQLVESGGGLVQAGGSLRLICAASGSIFRYYTMGWYRQGPGKERELVARISSSGSTNYADSVKGRFTISRDNAKNTVYLQMNSLKPEDTEVYYCAARAFSWAGYYYWGQGTQVTLSS", "polyreactivity (PSR sort gate)": "low polyreactivity"}, {"sequence": "QVQLVESGGGLVQAGGSLRLICAASGSIFSGYAMGWYRQAPGKERELVAAITTSGGSTYYADSVKGRFTISRENAKNTVYLPMNSLNPEDTSVYYCAAGWLYSRYARVYYWGQGTQVTLSS", "polyreactivity (PSR sort gate)": "high polyreactivity"}, {"sequence": "QVQLVESGGGLVQAGGSLRLICAASGSIFTSNVMGWYRQSPGKERELVAAITITGTTNYADSVKGRFTISRDNAKYTVYLLMNSLKPEDTAVYDCAARHKQHNRYDYWGQGTQVTVSS", "polyreactivity (PSR sort gate)": "low polyreactivity"}, {"sequence": "QVQLVESGGGLVQAGGSLRLICAASGSIFVGYAMGWYRQAPGKERELVAAISSNGGSTYYAYSVKGRFTISRDNAKNTVYLQMNSLKPEDTAVYYCAAGVRRVYASGHGAYGYWGQGTQVTVSS", "polyreactivity (PSR sort gate)": "low polyreactivity"}, {"sequence": "QVQLVESGGGLVQAGGSLRLICAASGSIFVLNAMGWYRQAPGKERELVAAITSGGSTYYADSVKGRFTISRDNAKNTVYLQMISLKPEDTAVYYCNALDLSPSYKYDYWGQGTQVTVSS", "polyreactivity (PSR sort gate)": "low polyreactivity"}, {"sequence": "QVQLVESGGGLVQAGGSLRLICAASGSIFWAYAMGWYRQAPGKERELVAAISSSGGRTYYADSVKGRFTISRDNAKNTVYFQMNSLNPEDTAVYYCAARSYSGYSPTFDYWGQGTQVTVSS", "polyreactivity (PSR sort gate)": "high polyreactivity"}, {"sequence": "QVQLVESGGGLVQAGGSLRLICAASGSIFYVYAMGWYRQSPGKERELDAAINTSGGSTFYADSVKGRFTISRDNAKNTVYLQMNSLKPEDTAVYYCAAERYRYRSTDTMGYWGQGTQVTVSS", "polyreactivity (PSR sort gate)": "low polyreactivity"}, {"sequence": "QVQLVESGGGLVQAGGSLRLICAASGSIITGYPMGWYRQAPGKERELVAGINSGTSTNFADSVKGRFTISRDNAKNTVFLQMNSMKPEDTAVYYCAKTAERRHYGVYRFDYWGQGTQVTVSS", "polyreactivity (PSR sort gate)": "low polyreactivity"}, {"sequence": "QVQLVESGGGLVQAGGSLRLICAASGSILDGNTMGWYRQAPGKERELVAAITWDGTSTYFADSVKGRFTISRDNAKNTVYLQMNSLKPEDTAVYYCAATKGYSDPSTGYYAYIHYDYWGQGTQVTVSS", "polyreactivity (PSR sort gate)": "low polyreactivity"}, {"sequence": "QVQLVESGGGLVQAGGSLRLICAASGSILSTYAMGWYREAPGKERELVADISGRVGSTYYADSVKGRFTISRDNAKNTDYLQMNSLKPEDTAVYYCAAALDYWPGYEYYYWGQGTQVTVSS", "polyreactivity (PSR sort gate)": "low polyreactivity"}, {"sequence": "QVQLVESGGGLVQAGGSLRLICAASGSISYYNAMGRYRQAPGKERELVADITSGGGTYYADSVMGGFTISRDNAKNTVFLQMNSLKPEDTAVYYCAKDYGFTGYGYWGQGTQVTVSS", "polyreactivity (PSR sort gate)": "low polyreactivity"}, {"sequence": "QVQLVESGGGLVQAGGSLRLICAASGSNFVGYAMGWYRQAPGKERELVAAISRTGASTYYADSVKGRFTISRDNAKNTVYLQMNSLKPEDTAVYYCAYYYSIYDYWGQGTQVTVSS", "polyreactivity (PSR sort gate)": "high polyreactivity"}, {"sequence": "QVQLVESGGGLVQAGGSLRLICAASGSTFASYAMGWYRQAPGKERELVAAITRRGGSTYYADSVKGRFTISRDNAKNTVYLQMNSLKPEDTAVYYCAAKWTPATYKFDYWGQGTQVTVSS", "polyreactivity (PSR sort gate)": "high polyreactivity"}, {"sequence": "QVQLVESGGGLVQAGGSLRLICAASGSTFELYAMGWYRQAPGKEREFVAAITYDSTYYADSVKGRFTISRDNAKNTVYLQMNSLKPEDTAVYYCAAAYWHYYYGWDMYYWGQGTQVTVSS", "polyreactivity (PSR sort gate)": "high polyreactivity"}, {"sequence": "QVQLVESGGGLVQAGGSLRLICAASGSTFEYSTMGWYRPAPGKERELVAAINSSGGRTYYADSVKGRFTISRDNAKNTVYLQMNSLKPEDTAVYYCNARWRSGPRAYDYWGQGTQVTLSS", "polyreactivity (PSR sort gate)": "high polyreactivity"}]}]}
